Data: article doi:10.1101/2022.11.09.515782

Molecular target: glycophorin A TMD, BLaTM chimera
Test: split reporter

glycophorin A TMD, BLaTM chimera (domain or fragment)
ampicillin LD50: 100 µg/mL
